± gives the standard deviation of the averaged measurements.
B1: library; a variant is named by its letters at N, in order (parent)
chain: GCUGUCACCGGUGCUUGGUACGUUAUAUUCAGCCGGUCUGAUGAGUCUNNNNNNAGACGAAACAGC

Tests used:
[1] = variants of: B1; assay: FACS-Seq fitted mean relative fluorescence mCherry/BFP without ligand (log10 relative fluorescence); HEK293T overexpressing SLC46A1; higher = higher reporter protein expression; conditions: without (6R,S)-folinic acid; ligand present: no
Procedure: (§1)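 Hammerhead (sTRSV) ribozyme switch libraries with a ligand aptamer grafted on stem I and a randomized N4-6 loop II, cloned into the 3' UTR of mCherry and transiently transfected into HEK293T cells; RNA-Seq 72 h post transfection with ligand added 1 h before transfection; RNA read count / plasmid DNA read count normalized to the non-cleaving sTRSVctl (x100), log10; sequences with >100 DNA reads. FACS-Seq: lentiviral library sorted into 6 bins after 48 h ligand, log-normal fit mean of mCherry/BFP scaled to controls. Printed sequences are partial switch sequences.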

[2] = variants of: B1; assay: normalized RNA/DNA level without ligand (relative to sTRSVctl = 100) (log10 (% of sTRSVctl)); HEK293T overexpressing SLC46A1; higher = less ribozyme self-cleavage, higher mRNA level; conditions: without (6R,S)-folinic acid; ligand present: no
Procedure: as §1

[3] = variants of: B1; assay: FACS-Seq fitted mean relative fluorescence mCherry/BFP with ligand (log10 relative fluorescence); HEK293T overexpressing SLC46A1; ligand concentration (+) FACS-Seq: 6 mM; higher = higher reporter protein expression; conditions: with (6R,S)-folinic acid; ligand present: yes
Procedure: as §1

[4] = variants of: B1; assay: normalized RNA/DNA level with ligand (relative to sTRSVctl = 100) (log10 (% of sTRSVctl)); HEK293T overexpressing SLC46A1; ligand concentration (+) RNA-Seq: 6 mM; higher = less ribozyme self-cleavage, higher mRNA level; conditions: with (6R,S)-folinic acid; ligand present: yes
Procedure: as §1

Variant: UAAGCU
- FACS-Seq fitted mean (log10) [1]: 0.334 ± 0.089
- normalized RNA/DNA level without ligand (log10) [2]: 1.992 ± 0.014
- FACS-Seq fitted mean (log10) [3]: 0.436 ± 0.13
- normalized RNA/DNA level with ligand (log10) [4]: 2.021 ± 0.0075

Variant: UAAGCG
- FACS-Seq fitted mean (log10) [1]: 0.384 ± 0.026
- normalized RNA/DNA level without ligand (log10) [2]: 1.736 ± 0.0051
- FACS-Seq fitted mean (log10) [3]: 0.777 ± 0.031
- normalized RNA/DNA level with ligand (log10) [4]: 1.96 ± 0.045

Variant: UAAUAG
- FACS-Seq fitted mean (log10) [1]: 0.255 ± 0.04
- normalized RNA/DNA level without ligand (log10) [2]: 1.75 ± 0.028
- FACS-Seq fitted mean (log10) [3]: 0.58 ± 0.11
- normalized RNA/DNA level with ligand (log10) [4]: 1.96 ± 0.057

Variant: UAAUAU
- FACS-Seq fitted mean (log10) [1]: 0.201 ± 0.005
- normalized RNA/DNA level without ligand (log10) [2]: 1.922 ± 0.0069
- FACS-Seq fitted mean (log10) [3]: 0.297 ± 0.077
- normalized RNA/DNA level with ligand (log10) [4]: 1.99 ± 0.026

Variant: AACAUG
- FACS-Seq fitted mean (log10) [1]: 0.494 ± 0.1
- normalized RNA/DNA level without ligand (log10) [2]: 1.96 ± 0.0024
- FACS-Seq fitted mean (log10) [3]: 0.6524 ± 0.0008
- normalized RNA/DNA level with ligand (log10) [4]: 2.02 ± 0.022

Variant: AACAUA
- FACS-Seq fitted mean (log10) [1]: 0.204 ± 0.049
- normalized RNA/DNA level without ligand (log10) [2]: 1.975 ± 0.0044
- FACS-Seq fitted mean (log10) [3]: 0.324 ± 0.15
- normalized RNA/DNA level with ligand (log10) [4]: 1.99 ± 0.033

Variant: AACAUC
- FACS-Seq fitted mean (log10) [1]: -0.902 ± 0.27
- normalized RNA/DNA level without ligand (log10) [2]: 2.061 ± 0.019
- FACS-Seq fitted mean (log10) [3]: -0.887 ± 0.24
- normalized RNA/DNA level with ligand (log10) [4]: 2.06 ± 0.065

Variant: UAAAUG
- FACS-Seq fitted mean (log10) [1]: 0.33 ± 0.034
- normalized RNA/DNA level without ligand (log10) [2]: 1.7477 ± 0.001
- FACS-Seq fitted mean (log10) [3]: 0.685 ± 0.3
- normalized RNA/DNA level with ligand (log10) [4]: 1.95 ± 0.039

Variant: AAACCA
- FACS-Seq fitted mean (log10) [1]: 0.226 ± 0.23
- normalized RNA/DNA level without ligand (log10) [2]: 2 ± 0.01
- FACS-Seq fitted mean (log10) [3]: 0.0655 ± 0.071
- normalized RNA/DNA level with ligand (log10) [4]: 2 ± 0.03

Variant: AACAGG
- FACS-Seq fitted mean (log10) [1]: 0.475 ± 0.12
- normalized RNA/DNA level without ligand (log10) [2]: 1.904 ± 0.01
- FACS-Seq fitted mean (log10) [3]: 0.351 ± 0.0077
- normalized RNA/DNA level with ligand (log10) [4]: 2 ± 0.031

Variant: AACAGA
- FACS-Seq fitted mean (log10) [1]: 0.344 ± 0.11
- normalized RNA/DNA level without ligand (log10) [2]: 1.964 ± 0.01
- FACS-Seq fitted mean (log10) [3]: 0.425 ± 0.04
- normalized RNA/DNA level with ligand (log10) [4]: 2 ± 0.028

Variant: AACAGU
- FACS-Seq fitted mean (log10) [1]: -0.296 ± 0.34
- normalized RNA/DNA level without ligand (log10) [2]: 1.94 ± 0.018
- FACS-Seq fitted mean (log10) [3]: 0.0957 ± 0.15
- normalized RNA/DNA level with ligand (log10) [4]: 2.001 ± 0.0087

Variant: UAAGUU
- FACS-Seq fitted mean (log10) [1]: 0.118 ± 0.029
- normalized RNA/DNA level without ligand (log10) [2]: 1.952 ± 0.0089
- FACS-Seq fitted mean (log10) [3]: 0.124 ± 0.17
- normalized RNA/DNA level with ligand (log10) [4]: 2.01 ± 0.041

Variant: UAAGUC
- FACS-Seq fitted mean (log10) [1]: 0.228 ± 0.093
- normalized RNA/DNA level without ligand (log10) [2]: 2.0619 ± 0.00099
- FACS-Seq fitted mean (log10) [3]: 0.173 ± 0.12
- normalized RNA/DNA level with ligand (log10) [4]: 2.038 ± 0.0091

Variant: UAAGUG
- FACS-Seq fitted mean (log10) [1]: 0.502 ± 0.074
- normalized RNA/DNA level without ligand (log10) [2]: 1.6686 ± 0.0006
- FACS-Seq fitted mean (log10) [3]: 0.881 ± 0.18
- normalized RNA/DNA level with ligand (log10) [4]: 1.93 ± 0.055

Variant: AAAGGG
- FACS-Seq fitted mean (log10) [1]: 0.172 ± 0.033
- normalized RNA/DNA level without ligand (log10) [2]: 1.671 ± 0.016
- FACS-Seq fitted mean (log10) [3]: 0.631 ± 0.087
- normalized RNA/DNA level with ligand (log10) [4]: 1.97 ± 0.049

Variant: AAAGGC
- FACS-Seq fitted mean (log10) [1]: 0.486 ± 0.051
- normalized RNA/DNA level without ligand (log10) [2]: 2.041 ± 0.0056
- FACS-Seq fitted mean (log10) [3]: 0.631 ± 0.18
- normalized RNA/DNA level with ligand (log10) [4]: 2.04 ± 0.034

Variant: AAAGGA
- FACS-Seq fitted mean (log10) [1]: 0.158 ± 0.1
- normalized RNA/DNA level without ligand (log10) [2]: 1.909 ± 0.007
- FACS-Seq fitted mean (log10) [3]: 0.355 ± 0.16
- normalized RNA/DNA level with ligand (log10) [4]: 2 ± 0.027

Source: the supplement of paper PMC6757056
